Values joined by “and” are separate entries in the source; they are usually repeats but may differ in a detail not shown here. Identical values can stand only once. Square brackets hold non-standard residues; d marks the D form. Ends that are not written are not given here. dMet(O) = CS(=O)CC[C@@H](N)C(=O)O
What was measured:
[1] = target: Tau40 P301L protein (human); assay: cell-based or functional assay
[2] = target: Ac-VQIINK-NH2 (SEQ ID NO: 23) (N-terminal acetyl (Ac); C-terminal amide (NH2)); assay: cell-based or functional assay

Row | IC50, Tau40 assay (ThT) [1] | VQIINK Inhibition IC50 [2] [µm] | Binder
1 | 3.23 µM |  | [dW][dR][dL][dK][dA][dR][dW] [wrlkarw]
2 | 3.23 µM |  | [dW][dR][dA][dK][dV][dR][dW] [wrakvrw]
3 |  | 11 | [dW][dE][dL][dK][dV][dE][dW] [welkvew]
4 | 3.06 µM |  | [dW][dR][dL][dR][dI][dW][dW] [wrlriww]
5 | 2.79 µM |  | [dW][dR][dL][dR][dI][dF][dW] [wrlrifw]
6 | 3.23 µM |  | [dW][dA][dL][dR][dI][dH][dW] [walrihw]
7 | 2.7 µM |  | [dT][dR][dL][dR][dI][dH][dW] [trlrihw]
8 | 3.13 µM |  | [dW][dR][dL][dD][dV][dR][dW] [wrldvrw]
9 | 2.94 µM |  | [dW][dK][dL][dW][dL][dR][dW][dW] [wklwlrww]
10 | 3.23 µM |  | [dW][dR][dL][dE][dI][dH][dW] [wrleihw]
11 |  | 11.7 | [dW][dR][dM][dR][dI][dH][dW] [wrmrihw]
12 | 2.81 µM |  | [dW][dK][dL][dV][dV][dW] [wklvvw]
13 | 2.88 µM |  | [dW][dH][dV][dK][dF][dE][dL][dF] [whvkfelf]
14 |  | 8.93 | [dW][dR][dL][dR][dM][dH][dW] [wrlrmhw]
15 | 2.76 µM |  | [dW][dR][dL][dT][dI][dH][dW] [wrltihw]
16 |  | 20.5 | [dW][dR][dL][dK][dV][dR][dA] [wrlkvra]

Row | IC50, Tau40 assay (ThT) [1] | VQIINK Inhibition IC50 [2] [µm] | Binder
17 | 2.76 µM |  | [dW][dD][dL][dK][dV][dR][dW] [wdlkvrw]
18 | 3.23 µM |  | [dW][dR][dL][dN][dV][dN][dW] [wrlnvnw]
19 |  | 13.5 | [dW][dR][dL][dK][dH][dR][dW] [wrlkhrw]
20 |  | 9.47 | [dV][dR][dW][dW][dW][dR][dL][dK] [vrwwwrlk]
21 | 2.7 µM |  | [dW][dR][dL][dK][dV][dD][dW] [wrlkvdw]
22 | 3.23 µM |  | [dW][dR][dL][dR][dA][dH][dW] [wrlrahw]
23 |  | 13.1 | [dW][dR][dT][dK][dT][dR][dW] [wrtktrw]
24 |  | 14.5 | [dW][dR][dL][dR][dI][dH][dE] [wrlrihe]
25 | 3.23 µM |  | [dW][dR][dL][dR][dI][dE][dW] [wrlriew]
26 | 3.23 µM |  | [dW][dR][dT][dR][dI][dH][dW] [wrtrihw]
27 | 3.23 µM |  | [dW][dR][dL][dM][dI][dH][dW] [wrlmihw]
28 |  | 19.1 | [dW][dR][dA][dR][dI][dH][dW] [wrarihw]
29 |  | 9.75 | [dW][dR][dL][dR][dI][dH][dA] [wrlriha, listing 1 of 2 here]
30 | 3 µM |  | [dW][dR][dI][dR][dI][dR][dW] [wririrw]
31 |  | 12.1 | [dR][dR][dL][dR][dI][dH][dW] [rrlrihw]
32 | 3.23 µM |  | [dW][dR][dL][dR][dI][dH][dA] [wrlriha, listing 2 of 2 here]

The remaining lines, values behind:

Row | Binder | IC50, Tau40 assay (ThT) [1] | VQIINK Inhibition IC50 [2] [µm]
33 | [dL][dK][dI][dMet(O)][dI][dH][dY] [lkixihy] | 2.81 µM | 
34 | [dL][dE][dL][dK][dI][dK][dF][dW] [lelkikfw] | 2.73 µM and 2.85 µM | 
35 | [dR][dL][dR][dI][dR][dW] [rlrirw] | 2.96 µM | 
36 | [dL][dK][dA][dR][dI][dH][dY][dH] [lkarihyh] |  | 10
37 | [dA][dK][dI][dR][dI][dH][dY][dH] [akirihyh] |  | 8.93
38 | [dE][dR][dL][dR][dI][dH][dW] [erlrihw] |  | 13.6
39 | [dR][dL][dK][dI][dR][dW] [rlkirw] |  | 10.9
40 | [dL][dK][dR][dR][dI][dH][dY][dH] [lkrrihyh] |  | 31.8
41 | [dL][dK][dI][dA][dI][dH][dY] [lkiaihy] | 2.96 µM | 
42 | [dR][dI][dK][dI][dR][dW] [rikirw] |  | 10.8
43 | [dL][dK][dI][dR][dR][dH][dY][dH] [lkirrhyh, listing 1 of 2 here] |  | 10.5
44 | [dL][dK][dI][dY][dI][dH][dY] [lkiyihy] | 2.93 µM | 
45 | [dF][dE][dL][dH][dI][dK][dW][dH] [felhikwh] | 3.11 µM | 
46 | [dL][dK][dI][dR][dI][dH][dY] [lkirihy] |  | 17.6
47 | [dL][dK][dI][dR][dI][dH][dA] [lkiriha] | 2.92 µM | 
48 | [dL][dK][dI][dR][dR][dH][dY][dH] [lkirrhyh, listing 2 of 2 here] | 3.21 µM | 
49 | [dF][dK][dI][dR][dI][dH][dY][dH] [fkirihyh] | 2.76 µM | 
50 | [dL][dK][dI][dR][dI][dH][dR][dH] [lkirihrh] | 3.16 µM | 
51 | [dL][dK][dL][dK][dI][dK][dH][dF] [lklkikhf] | 2.75 µM | 
52 | [dE][dR][dL][dK][dV][dR][dW] [erlkvrw] | 3.07 µM | 
53 | [dK][dL][dK][dL][dK][dW] [klklkw] | 2.97 µM | 
54 | [dK][dI][dK][dI][dK][dW] [kikikw] | 2.92 µM | 
55 | [dF][dK][dI][dR][dI][dK][dW][dH] [fkirikwh] | 3.06 µM and 5.46 µM | 
56 | [dI][dR][dI][dH][dY][dH][dL][dK] [irihyhlk] |  | 8.69
57 | [dA][dR][dL][dK][dV][dR][dW] [arlkvrw] | 3.23 µM | 
58 | [dK][dV][dR][dW][dW][dW][dR][dL] [kvrwwwrl] |  | 15.2
59 | [dF][dH][dI][dR][dL][dR][dH][dH] [fhirlrhh] | 3.21 µM and 4.3 µM | 
60 | [dL][dK][dI][dW][dI][dW][dY][dH] [lkiwiwyh] | 3.19 µM | 
61 | [dE][dR][dL][dK][dV][dR][dW][dW] [erlkvrww] |  | 20.4

— US20200216495A1 (ADRX, published 2020)
